The target in assay [1] is PDIA1 (human) (UniProt P07237). The assay can be described thus: co-IP from LIM1215 lysates equalised for ADAM10, mass spectrometry.
Assay [2] addresses T1, AxxA mutant human ADAM10 (Cys594 and Cys597 to alanine) (human, UniProt O14672 214-748).
T1 construct: Expressed in ADAM10-/- mouse embryonic fibroblasts; tested in detergent lysates by IP; also called AXXA mutant ADAM10; AxxA ADAM10; not shown: turbo-myc tag of the OriGene construct
T1 sequence: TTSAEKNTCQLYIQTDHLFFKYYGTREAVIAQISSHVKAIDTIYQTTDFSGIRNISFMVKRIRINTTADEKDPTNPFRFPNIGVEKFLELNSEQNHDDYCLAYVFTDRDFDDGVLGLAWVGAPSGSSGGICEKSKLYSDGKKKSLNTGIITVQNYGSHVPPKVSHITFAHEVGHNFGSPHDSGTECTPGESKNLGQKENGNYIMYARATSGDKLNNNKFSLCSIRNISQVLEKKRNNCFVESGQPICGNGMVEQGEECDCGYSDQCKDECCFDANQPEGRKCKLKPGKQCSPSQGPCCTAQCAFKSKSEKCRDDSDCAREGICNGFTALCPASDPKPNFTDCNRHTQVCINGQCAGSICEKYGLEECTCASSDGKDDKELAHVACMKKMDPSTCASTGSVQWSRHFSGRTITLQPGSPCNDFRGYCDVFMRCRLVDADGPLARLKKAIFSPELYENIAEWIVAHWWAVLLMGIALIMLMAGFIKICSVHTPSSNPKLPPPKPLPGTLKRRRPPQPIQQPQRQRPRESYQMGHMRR
The assay can be described thus: immunoprecipitation from lysates of ADAM10-/- MEFs transfected with AxxA mutant ADAM10, Western blot α-ADAM10. For orientation: Immunoblotting shows a protein as a band on a membrane.

Assay [3] concerns the target T2, recombinant huADAM10D+C protein (human, UniProt O14672 455-646).
T2 construct: the whole entry is named here (the bovine construct was 455-646); also called huADAM10D+C domain protein; immobilised recombinant huADAM10D+C
T2 sequence: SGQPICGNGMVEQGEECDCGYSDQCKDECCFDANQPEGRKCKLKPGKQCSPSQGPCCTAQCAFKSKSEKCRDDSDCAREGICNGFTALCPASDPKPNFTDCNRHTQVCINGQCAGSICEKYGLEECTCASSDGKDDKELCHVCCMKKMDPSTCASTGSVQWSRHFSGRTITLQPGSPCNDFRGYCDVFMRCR
The assay can be described thus: SPR, BIAcore 3000, huADAM10D+C immobilised, antibody in solution. A general note: Surface plasmon resonance follows binding to a sensor surface in real time, without labels.

Chain of PDIA1 (human) (P07237 18-508 limits assumed): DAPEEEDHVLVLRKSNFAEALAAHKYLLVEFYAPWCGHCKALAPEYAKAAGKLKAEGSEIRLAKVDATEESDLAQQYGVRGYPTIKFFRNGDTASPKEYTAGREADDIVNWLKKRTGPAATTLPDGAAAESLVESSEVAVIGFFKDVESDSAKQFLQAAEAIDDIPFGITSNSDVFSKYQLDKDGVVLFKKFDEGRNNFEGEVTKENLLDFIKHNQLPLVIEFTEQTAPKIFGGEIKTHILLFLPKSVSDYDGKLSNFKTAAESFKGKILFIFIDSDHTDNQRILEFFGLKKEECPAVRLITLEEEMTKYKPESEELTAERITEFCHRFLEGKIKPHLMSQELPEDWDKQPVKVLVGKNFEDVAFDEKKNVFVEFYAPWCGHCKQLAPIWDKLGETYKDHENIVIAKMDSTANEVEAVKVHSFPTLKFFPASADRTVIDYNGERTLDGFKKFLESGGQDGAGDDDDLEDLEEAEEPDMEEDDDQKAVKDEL

“human ADAM10, endogenous full length (from UniProt O14672 214-748) (enzyme)”: in assay [1], the fold more peptides detected in 8C7 IPs than in 4A11 IPs is > 50 fold.

B1: anti-ADAM10 monoclonal antibody 8C7 (murine) (antibody, V domains shown)
VH: EVQLQQSGAELARPGSSVKLSCKASGYTFTNYWLQWVKQRTGQGLEWIGAIYPRDGDAKYSQKFKDKASLTVNESSSTAYMHLSALASEDSAVYYCARANYGLYYAMDRWGQGTSVTVSS
VL: DIFLTQSPANMSVSPGERVSFSCRASQNIGTNIHWYQQRTNGSPRLLIKYASESISGIPSRFSGSGSGTDFILSINTVESEDIAVYFCQQSNRWPFTFGSGTKLEVI
modifications: Alexa647 dye or coupling to Minileak beads in some experiments; not carried by the letters
notes: Murine whole IgG; Used soluble, coupled to Minileak beads, or Alexa647-labelled depending on the experiment; also called mAb 8C7; mAb8C7
With B1, the binding result in assay [2] was “no binding”.

B2: ch8C7, human and mouse chimerised version of mAb 8C7 (antibody, V domains shown)
VH: EVQLQQSGAELARPGSSVKLSCKASGYTFTNYWLQWVKQRTGQGLEWIGAIYPRDGDAKYSQKFKDKASLTVNESSSTAYMHLSALASEDSAVYYCARANYGLYYAMDRWGQGTSVTVSS
VL: DIFLTQSPANMSVSPGERVSFSCRASQNIGTNIHWYQQRTNGSPRLLIKYASESISGIPSRFSGSGSGTDFILSINTVESEDIAVYFCQQSNRWPFTFGSGTKLEVIR
notes: The exact V/C junction is not described; also called chimeric 8C7
The term Kd denotes a measure of binding affinity in units of concentration. Usually koff stands for a measure of how fast the partners let go of each other. For orientation: kon means the rate constant with which the complex forms. B2: in assay [3], the dissociation constant Kd came out at 6.71 nM, the off-rate constant (koff) stood at 0.00105 s⁻¹ and the kon came to 157000 M⁻¹ s⁻¹.

B3: hu8C7, fully humanised version of 8C7 (antibody, human IgG1, kappa, V domains shown)
VH: EVQLQQSGAELAKPGSSVKLSCKASGYTFTNYWLQWVKQRPGQGLEWIGAIYPRDGDAKYSQKFKDKASITVNESTSTAYMHLSSLRSEDTAVYYCARANYGLYYAMDRWGQGTTVTVSS
VL: DIVLTQSPAFMSVSPGERVSVSCRASQNIGTNIHWYQQRPDQSPRLLIKYASESISGIPSRFSGSGSGTDFYLTINSVESEDIAVYFCQQSNRWPFTFGSGTKLEVKR
notes: Human IgG1-kappa; humanised variable domains replaced the murine ones in the ch8C7 constructs; The exact V/C junction is not described; also called humanized 8C7
Take B3: in assay [3], the Kd amounted to 7.33 nM, the koff turned out to be 0.00122 s⁻¹ and the on-rate constant (kon) is 166000 M⁻¹ s⁻¹.

(Values after patent US20190105405A1 (MONASH UNIVERSITY, published 2019).)
